Measurements from US20240092935A1 (BETH ISRAEL DEACONESS MEDICAL CENTER, published 2024).
Blank lines part the entries; values can stand above or below the binder they belong to. GalNAc = N-acetylgalactosamine

Experiments:
[1] = biological target: T1, Asialo-BSM (desialylated bovine submaxillary mucin) (bovine); experiment: plate binding assay, Asialo-BSM coated on 96-well plate, serial dilution of antibody, fluorescent secondary antibody
T1 construct: also called desialylated BSM; Asialo-BSM beads

[2] = biological target: T2, MUC5AC glycopeptide H2N-GTTPSPVPT*TSTTSAP-OH (chart ID 10); experiment: Tn glycopeptide microarray, Alexa Fluor 488 goat anti-human IgG
T2 peptide: H-GTTPSPVPT(GalNAc)TSTTSAP-OH
Description: (§1) The Tn glycopeptide microarray was prepared as previously described (25). The Consortium for Functional Glycomics (CFG) glycan microarray version 5.0 was used (www.functionalglycomics.org) (26). […] Slides were washed four times with TSM wash buffer 1 (20 mM Tris-HCl, pH 7.4, 150 mM NaCl, 2 mM CaCl₂), 2 mM MgCl2 and 0.05% Tween-20), and washed four times with TSM wash buffer 2 (20 mM Tris-HCl, pH 7.4, 150 mM NaCl, 2 mM CaCl2) and 2 mM MgCl2). Alexa Fluor® 488-labeled goat anti-human IgG or goat anti-mouse IgM secondary (diluted to 5 μg/ml) were used for detection. After washing as above, slides were washed once in water and dried before being read on a Genepix® 4300A microarray scanner (Molecular Devices). Images were analyzed with quantitation software (GenePix® Pro Microarray Analysis Software Ver. 7, Molecular Devices).

[3] = biological target: T3, Peptide-4 H2N-KTTT-CONH2 (chart ID 21); experiment: as above
T3 peptide: H-KTTT-NH2
Description: as §1

[4] = biological target: T4, a-Dystroglycan peptide Ac-PPTTTTKKP-NH2 (chart ID 9); experiment: as above
T4 peptide: Ac-PPTTTTKKP-NH2
Description: as §1

[5] = biological target: T5, MUC1-1 glycopeptide H2N-TSAPDT*RDAP-NH2 (chart ID 14); experiment: as above
T5 peptide: H-TSAPDT(GalNAc)RDAP-NH2
Description: as §1

[6] = biological target: T6, Peptide-5 H2N-KTTTG-CONH2 (chart ID 22); experiment: as above
T6 peptide: H-KTTTG-NH2
Description: as §1

[7] = biological target: T7, EA2 glycopeptide Ac-PTTDSTT*PAPTTK-NH2 (chart ID 11); experiment: as above
T7 peptide: Ac-PTTDSTT(GalNAc)PAPTTK-NH2
Description: as §1

[8] = biological target: T8, EA2-R peptide Ac-PTTDSTTPAPTTK-NH2 (chart ID 12); experiment: as above
T8 peptide: Ac-PTTDSTTPAPTTK-NH2
Description: as §1

[9] = biological target: T9, a-Dystroglycan glycopeptide Ac-PPT*T*T*T*KKP-HN2 (chart ID 13); experiment: as above
T9 peptide: Ac-PPT(GalNAc)T(GalNAc)T(GalNAc)T(GalNAc)KKP-NH2
Description: as §1

[10] = biological target: T10, MUC1-1R peptide H2N-TSAPDTRDAP-NH2 (chart ID 15); experiment: as above
T10 peptide: H-TSAPDTRDAP-NH2
Description: as §1

[11] = biological target: T2, MUC5AC glycopeptide …; experiment: Tn glycopeptide microarray, Alexa Fluor 488 goat anti-mouse IgM
Description: as §1

[12] = biological target: T3, Peptide-4 H2N-KTTT-CONH2 (chart ID 21); experiment: as above
Description: as §1

[13] = biological target: T5, MUC1-1 glycopeptide H2N-TSAPDT*RDAP-NH2 …; experiment: as above
Description: as §1

[14] = biological target: T6, Peptide-5 H2N-KTTTG-CONH2 (chart ID 22); experiment: as above
Description: as §1

[15] = biological target: T7, EA2 glycopeptide Ac-PTTDSTT*PAPTTK-NH2 …; experiment: as above
Description: as §1

[16] = biological target: T8, EA2-R peptide Ac-PTTDSTTPAPTTK-NH2 …; experiment: as above
Description: as §1

[17] = biological target: T9, a-Dystroglycan glycopeptide …; experiment: as above
Description: as §1

[18] = biological target: T10, MUC1-1R peptide H2N-TSAPDTRDAP-NH2 …; experiment: as above
Description: as §1

[19] = biological target: T4, a-Dystroglycan peptide Ac-PPTTTTKKP-NH2 …; experiment: as above
Description: as §1

[20] = biological target: T11, F-MUC2 glycopeptide Ac-PTT*T*PLK-NH2 (chart ID 6); experiment: Tn glycopeptide microarray probed with biotinylated PNA and Alexa488-streptavidin
T11 construct: also called double-Tn-MUC2; bar label T*T*
T11 peptide: Ac-PTT(GalNAc)T(GalNAc)PLK-NH2

[21] = biological target: T12, A-MUC2 glycopeptide Ac-PT*TTPLK-NH2 (chart ID 1); experiment: as above
T12 peptide: Ac-PT(GalNAc)TTPLK-NH2

[22] = biological target: T13, B-MUC2 glycopeptide Ac-PTT*TPLK-NH2 (chart ID 2); experiment: as above
T13 peptide: Ac-PTT(GalNAc)TPLK-NH2

[23] = biological target: T14, C-MUC2 glycopeptide Ac-PTTT*PLK-NH2 (chart ID 3); experiment: as above
T14 peptide: Ac-PTTT(GalNAc)PLK-NH2

[24] = biological target: T15, D-MUC2 glycopeptide Ac-PT*T*TPLK-NH2 (chart ID 4); experiment: as above
T15 peptide: Ac-PT(GalNAc)T(GalNAc)TPLK-NH2

- Kd [1]: 829 nM
B1: Remab6, recombinant human chimeric IgG1 anti-Tn antibody (antibody)
heavy: not shown
light: QIVLTQSPAIMSSSPGEKVALSCSASSSVSYVYWYQQKPGSSPKPWIYRTSNLASGVPARFSGSGSGTSYSLTISSMEAEDAATYYCQQYHSYPFTFGSGTKLEIKRTVAAPSVFIFPPSDEQLKSGTASVVCLLNNFYPREAKVQWKVDNALQSGNSQESVTEQDSKDSTYSLSSTLTLSKADYEKHKVYACEVTHQGLSSPVTKSFNRGEC
notes: Mouse variable regions engineered from BaGs6 with human IgG1 and kappa constant regions; expressed in HEK293 Freestyle cells; also called Remab6-WT; hIgG1
- binding result [2]: no binding (tested: 5 µg/ml (text paragraph 261))
- binding result [3]: no binding (tested: 5 µg/ml (text paragraph 261))
- binding result [4]: no binding (tested: 5 µg/ml (text paragraph 261))
- binding result [5]: no binding (tested: 5 µg/ml (text paragraph 261))
- binding result [6]: no binding (tested: 5 µg/ml (text paragraph 261))
- binding result [7]: no binding (tested: 5 µg/ml (text paragraph 261))
- binding result [8]: no binding (tested: 5 µg/ml (text paragraph 261))
- binding result [9]: no binding (tested: 5 µg/ml (text paragraph 261))
- binding result [10]: no binding (tested: 5 µg/ml (text paragraph 261))

B2: BaGs6, murine IgM anti-Tn monoclonal antibody from mouse ascites (antibody, V domains shown)
VH: DTMLQQSDAELVKPGASVKMSCKASGYTFTDHAIHWVKQKPEQGLEWIGYVSPGNGDIKYNEKFKGKATLSADKSSSTAYMQLNSLTSEDSAVYFCKRSYGSFDYWGQGTTLTVSS
VL: QIVLTQSPAIMSSSPGEKVALSCSASSSVSYVYWYQQKPGSSPKPWIYRTSNLASGVPARFSGSGSGTSYSLTISSMEAEDAATYYCQQYHSYPFTFGSGTKLEIKR
notes: Natural mouse IgM used as ascites fluid; also called Ca3638; anti-Tn ascites
- binding result [11]: no binding (tested: 1:200 dilution (text paragraph 261))
- binding result [12]: no binding (tested: 1:200 dilution (text paragraph 261))
- binding result [13]: no binding (tested: 1:200 dilution (text paragraph 261))
- binding result [14]: no binding (tested: 1:200 dilution (text paragraph 261))
- binding result [15]: no binding (tested: 1:200 dilution (text paragraph 261))
- binding result [16]: no binding (tested: 1:200 dilution (text paragraph 261))
- binding result [17]: no binding (tested: 1:200 dilution (text paragraph 261))
- binding result [18]: no binding (tested: 1:200 dilution (text paragraph 261))

- Kd [1]: 54.3 nM
B3: ReBaGs6, recombinant murine IgM anti-Tn antibody (antibody)
heavy: DTMLQQSDAELVKPGASVKMSCKASGYTFTDHAIHWVKQKPEQGLEWIGYVSPGNGDIKYNEKFKGKATLSADKSSSTAYMQLNSLTSEDSAVYFCKRSYGSFDYWGQGTTLTVSSESQSFPNVFPLVSCESPLSDKNLVAMGCLARDFLPSTISFTWNYQNNTEVIQGIRTFPTLRTGGKYLATSQVLLSPKSILEGSDEYLVCKIHYGGKNRDLHVPIPAVAEMNPNVNVFVPPRDGFSGPAPRKSKLICEATNFTPKPITVSWLKDGKLVESGFTTDPVTIENKGSTPQTYKVISTLTISEIDWLNLNVYTCRVDHRGLTFLKNVSSTCAASPSTDILTFTIPPSFADIFLSKSANLTCLVSNLATYETLNISWASQSGEPLETKIKIMESHPNGTFSAKGVASVCVEDWNNRKEFVCTVTHRDLPSPQKKFISKPNEVHKHPPAVYLLPPAREQLNLRESATVTCLVKGFSPADISVQWLQRGQLLPQEKYVTSAPMPEPGAPGFYFTHSILTVTEEEWNSGETYTCVVGHEALPHLVTERTVDKSTGKPTLYNVSLIMSDTGGTCY
light: QIVLTQSPAIMSSSPGEKVALSCSASSSVSYVYWYQQKPGSSPKPWIYRTSNLASGVPARFSGSGSGTSYSLTISSMEAEDAATYYCQQYHSYPFTFGSGTKLEIKRADAAPTVSIFPPSSEQLTSGGASVVCFLNNFYPKDINVKWKIDGSERQNGVLNSWTDQDSKDSTYSMSSTLTLTKDEYERHNSYTCEATHKTSTSPIVKSFNRNEC
notes: Mouse IgM (mu heavy chain, kappa light chain); also called ReGs6; mIgM
- binding result [12]: no binding (tested: 20 or 2 µg/ml (text paragraph 261))
- binding result [19]: no binding (tested: 20 or 2 µg/ml (text paragraph 261))
- binding result [13]: no binding (tested: 20 or 2 µg/ml (text paragraph 261))
- binding result [14]: no binding (tested: 20 or 2 µg/ml (text paragraph 261))
- binding result [17]: no binding (tested: 20 or 2 µg/ml (text paragraph 261))
- binding result [18]: no binding (tested: 20 or 2 µg/ml (text paragraph 261))

- binding result [20]: no binding
- binding result [21]: no binding
- binding result [22]: no binding
- binding result [23]: no binding
- binding result [24]: no binding
B4: PNA (other)
chain: AETVSFNFNSFSEGNPAINFQGDVTVLSNGNIQLTNLNKVNSVGRVLYAMPVRIWSSATGNVASFLTSFSFEMKDIKDYDPADGIIFFIAPEDTQIPAGSIGGGTLGVSDTKGAGHFVGVEFDTYSNSEYNDPPTDHVGIDVNSVDSVKTVPWNSVSGAVVKVTVIYDSSTKTLSVAVTNDNGDITTIAQVVDLKAKLPERVKFGFSASGSLGGRQIHLIRSWSFTSTLITTTRRSIDNNEKKIMNMASA
modifications: Biotinylated at unspecified positions. The native lectin is a homotetramer; one subunit is given.
notes: also called biotinylated PNA; Peanut agglutinin
